# Measured values from patent US8394770B2 (priority 2007, dated 2013).
# No end group written: not given here.
# B1: Vm23 (peptide)
# peptide: AAAISCVGSKECLPKCKAQGCKSGKCMNKKCKCYC-OH
# modifications: disulfide (positions not given here); also: four disulfide bridges, pairing not given here (assumed as in Vm24)
# What was measured:
# hKv1.3 channels [1] = target: T1, hKv1.3 channels (Homo sapiens, UniProt P22001); assay: Whole-cell patch-clamp block of hKv1.3 channels endogenously expressed in human peripheral blood T cells; type: cell-based; set-up: channels expressed endogenously in human peripheral blood T cells; endogenous in cells; host or cells: human peripheral blood T lymphocytes from healthy volunteers, PHA-stimulated
# mice = assay: In vivo toxicity / lethality test by injection into mice; settings: injected, up to 10,000 microgram per 20 gram mouse weight (so in the source)
# mKv1.1 = mKv1.1 (Mus musculus, UniProt P16388); assay: Patch-clamp block of mKv1.1 channels stably expressed in L929 cells; settings: 10 nM
# hIKCa1 = hIKCa1 (Homo sapiens, UniProt O15554); assay: Patch-clamp block of recombinant hIKCa1 channels expressed in Cos-7 cells (voltage ramps); settings: 10 nM
# Method: The current carried by IKCa1 channels can be measured using a pipette filling solution having 1 μM free Ca^2+ concentration, which is sufficient to fully activate these channels [Grissmer et al., 1993].
# Cos-7 cells were maintained in standard cell culturing conditions [Bagdany at al, 2005]. […] The normal extracellular solution is the same as described above. […] This solution contained 1 μM free Ca^2+ concentration to fully activate the hIKCa1 current. All other recording conditions (data acquisition, perfusion etc.) were identical to the description above for Kv1.3 channels.
# Two hundred millisecond-long voltage ramps from −120 mV to +50 mV from a holding potential of −120 mV were used to elicit hIKCa1 currents in Cos-7 cells (ramp speed 0.85 mV/ms). Voltage ramps were run every 10 s. […] The reversal potential of the current is −75 mV, which is characteristic to a K^+ conductance based on the ionic composition of the recording solutions. For IKCa1 currents the slope (s) of the linear current-voltage relationship can be used to characterize the current block [Grissmer et al., 1993]. […] Error bars indicate SEM for n=3 independent experiments.
# hKv1.2 = hKv1.2 (Homo sapiens, UniProt P16389); assay: Patch-clamp block of hKv1.2 channels expressed in Cos-7 cells
# hKv1.3 channels [2] = target: T1, hKv1.3 channels
# T1 sequence (P22001 whole entry): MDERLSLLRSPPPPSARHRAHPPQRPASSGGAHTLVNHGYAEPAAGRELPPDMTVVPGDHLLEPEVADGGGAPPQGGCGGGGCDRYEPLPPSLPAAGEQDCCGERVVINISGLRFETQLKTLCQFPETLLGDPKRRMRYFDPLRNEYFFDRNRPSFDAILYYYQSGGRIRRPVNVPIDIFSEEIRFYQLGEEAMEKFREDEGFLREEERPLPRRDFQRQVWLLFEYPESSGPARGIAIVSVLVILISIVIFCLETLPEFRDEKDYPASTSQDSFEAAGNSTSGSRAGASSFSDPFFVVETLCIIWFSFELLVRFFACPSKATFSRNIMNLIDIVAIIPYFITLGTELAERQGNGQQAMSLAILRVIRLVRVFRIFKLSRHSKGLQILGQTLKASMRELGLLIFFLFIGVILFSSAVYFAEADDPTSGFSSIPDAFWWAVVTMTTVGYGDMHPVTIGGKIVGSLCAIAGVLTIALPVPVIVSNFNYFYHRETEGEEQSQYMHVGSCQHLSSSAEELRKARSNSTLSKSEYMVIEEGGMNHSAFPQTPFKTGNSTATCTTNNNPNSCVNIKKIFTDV
# Sequence of hKv1.2 (P16389 whole entry): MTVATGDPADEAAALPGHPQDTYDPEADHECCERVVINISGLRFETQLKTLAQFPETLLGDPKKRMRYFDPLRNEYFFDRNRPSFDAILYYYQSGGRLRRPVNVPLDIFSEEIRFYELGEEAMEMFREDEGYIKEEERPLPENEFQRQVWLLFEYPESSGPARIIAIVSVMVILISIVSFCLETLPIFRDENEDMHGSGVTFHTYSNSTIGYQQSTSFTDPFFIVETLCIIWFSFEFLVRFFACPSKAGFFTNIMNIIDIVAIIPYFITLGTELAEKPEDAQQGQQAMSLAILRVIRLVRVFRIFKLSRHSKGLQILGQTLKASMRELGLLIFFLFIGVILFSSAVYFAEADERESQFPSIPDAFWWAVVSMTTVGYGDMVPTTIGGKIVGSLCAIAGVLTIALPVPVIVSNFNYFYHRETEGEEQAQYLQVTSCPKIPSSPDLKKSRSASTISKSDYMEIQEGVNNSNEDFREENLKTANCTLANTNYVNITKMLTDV
# Sequence of hIKCa1 (O15554 whole entry): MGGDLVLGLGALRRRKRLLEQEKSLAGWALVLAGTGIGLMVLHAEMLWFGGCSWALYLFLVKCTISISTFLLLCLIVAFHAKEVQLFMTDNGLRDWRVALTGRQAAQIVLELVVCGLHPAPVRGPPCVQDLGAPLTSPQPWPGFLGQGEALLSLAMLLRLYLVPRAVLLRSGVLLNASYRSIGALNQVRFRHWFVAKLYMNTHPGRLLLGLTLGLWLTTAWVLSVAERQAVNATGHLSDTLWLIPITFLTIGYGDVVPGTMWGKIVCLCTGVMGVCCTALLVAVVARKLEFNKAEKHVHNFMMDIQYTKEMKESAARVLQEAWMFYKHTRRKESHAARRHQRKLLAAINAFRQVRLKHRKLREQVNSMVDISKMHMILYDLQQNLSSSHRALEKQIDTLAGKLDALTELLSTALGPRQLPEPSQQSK
# Sequence of mKv1.1 (P16388 whole entry): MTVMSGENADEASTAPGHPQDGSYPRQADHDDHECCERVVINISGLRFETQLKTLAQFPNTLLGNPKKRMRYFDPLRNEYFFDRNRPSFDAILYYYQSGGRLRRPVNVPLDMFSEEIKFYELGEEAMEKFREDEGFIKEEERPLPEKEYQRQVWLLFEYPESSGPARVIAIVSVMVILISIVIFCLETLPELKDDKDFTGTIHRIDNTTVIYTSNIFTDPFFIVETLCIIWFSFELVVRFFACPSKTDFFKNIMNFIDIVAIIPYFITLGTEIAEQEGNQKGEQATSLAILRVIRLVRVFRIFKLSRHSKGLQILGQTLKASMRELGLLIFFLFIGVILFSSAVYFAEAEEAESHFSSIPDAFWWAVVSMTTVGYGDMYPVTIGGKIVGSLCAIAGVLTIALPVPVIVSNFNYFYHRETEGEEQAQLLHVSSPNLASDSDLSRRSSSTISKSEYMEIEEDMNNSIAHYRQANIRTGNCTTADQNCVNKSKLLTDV
molecule,measurement,setting,value
"sVm24: chemically synthesized, correctly folded Vm24; primary sequence identical to the natural peptide (AAAISCVGSPECPPKCRAQGCKNGKCMNRKCKCYYC-NH2; not fully specified (bridges); also: disulfide pairing as native peptide (not given here))",block of hKv1.3 current,hKv1.3 channels [1]; 100 pM,> 90%
same,block of hKv1.3 current (words),hKv1.3 channels [1]; 100 pM,almost completely disappeared
same,potency in blocking hKv1.3 compared with natural toxin,"hKv1.3 channels [1]; RCF at 100 pM, t-test p=0.57",as potent as the natural toxin
"Vm23: 35 amino acid peptide from V. mexicanus venom, SEQ ID NO:1, four disulfide bridges, 83% identical to Vm24 (AAAISCVGSKECLPKCKAQGCKSGKCMNKKCKCYC; not fully specified (bridges); also: four disulfide bridges (pairing not given here))",toxicity in experimental animals,mice,not toxic
same,block of mKv1.1,mKv1.1,practically does not block
same,current inhibition mKv1.1,mKv1.1,~3%
same,block of hIKCa1,hIKCa1,practically does not block
same,current inhibition hIKCa1,hIKCa1,~1%
same,current inhibition hKv1.2,hKv1.2; 10 nM,~9%
same,time for equilibrium block of hKv1.2 to develop,hKv1.2; 10 nM,3.5 min
same,remaining current fraction (RCF) hKv1.2,"hKv1.2; 10 nM, n=3",0.91±0.02
same,reversibility of hKv1.2 block,"hKv1.2; after 10 nM, wash-out",not readily reversible within 2 min
same,blockage of hKv1.3 current,hKv1.3 channels [1]; 10 nM,approximately 95%
same,time for equilibrium block of hKv1.3 to develop,hKv1.3 channels [1]; 10 nM,3.5 min
same,block of hKv1.3 current (words),"hKv1.3 channels [1]; 10 nM, within 3.5 min",almost completely disappeared
same,relief of hKv1.3 block on wash-out,"hKv1.3 channels [1]; after 10 nM, within 2 minutes",did not result in a significant relief
B1,blockage of the current at 10 nM Vm23,hKv1.3 channels [2],95%
